Results reported in paper PMC10815899, “Glyceraldehyde 3-Phosphate Dehydrogenase on the Surface of Candida albicans and Nakaseomyces glabratus Cells—A Moonlighting Protein That Binds Human Vitronectin and Plasminogen and Can Adsorb to Pathogenic Fungal Cells via Major Adhesins Als3 and Epa6” (International Journal of Molecular Sciences, 2024).
Several values for one entry are separate records, joined by “and”; a condition that tells them apart may be missing. Equal values may be shown once.

What was measured:
[1] = target: T1, Eap1 (epithelial adhesin protein 1) on S. cerevisiae cells (C. albicans, UniProt G1UBC2 19-632); assay: whole-cell binding assay (biotin-labeled protein, SA-HRP/TMB); S. cerevisiae cells presenting the adhesin (3 × 10^7 cells per tube); biotin-labeled CaGAPDH 0–400 nM, 1 h at 37 °C; one-site specific binding model, estimated dissociation constants; conditions: one partner purified
T1 construct: Eap1 adhesin of C. albicans presented on the surface of S. cerevisiae; source: S. cerevisiae, overexpressed and surface-presented, on cells
T1 sequence: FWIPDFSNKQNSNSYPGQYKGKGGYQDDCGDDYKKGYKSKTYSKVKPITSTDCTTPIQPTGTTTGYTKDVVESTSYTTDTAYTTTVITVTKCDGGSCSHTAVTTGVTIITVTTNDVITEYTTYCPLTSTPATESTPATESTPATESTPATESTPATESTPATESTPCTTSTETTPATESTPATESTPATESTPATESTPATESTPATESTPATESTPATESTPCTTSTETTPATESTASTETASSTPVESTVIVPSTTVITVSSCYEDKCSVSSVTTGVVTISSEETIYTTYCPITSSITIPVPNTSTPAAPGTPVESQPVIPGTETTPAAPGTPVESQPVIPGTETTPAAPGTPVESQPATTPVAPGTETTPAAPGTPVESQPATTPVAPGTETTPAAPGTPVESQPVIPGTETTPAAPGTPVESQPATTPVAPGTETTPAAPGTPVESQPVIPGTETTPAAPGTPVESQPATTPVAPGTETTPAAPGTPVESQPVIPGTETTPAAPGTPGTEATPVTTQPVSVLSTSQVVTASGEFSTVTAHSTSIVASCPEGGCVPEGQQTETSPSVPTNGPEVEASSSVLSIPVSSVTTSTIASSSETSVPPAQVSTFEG

[2] = target: T2, Hwp1 (hyphal wall protein 1) on S. cerevisiae cells (C. albicans, UniProt P46593 28-613); assay: as above; conditions: one partner purified
T2 construct: Hyphal wall protein 1 of C. albicans presented on the surface of S. cerevisiae; source: S. cerevisiae, overexpressed and surface-presented, on cells
T2 sequence: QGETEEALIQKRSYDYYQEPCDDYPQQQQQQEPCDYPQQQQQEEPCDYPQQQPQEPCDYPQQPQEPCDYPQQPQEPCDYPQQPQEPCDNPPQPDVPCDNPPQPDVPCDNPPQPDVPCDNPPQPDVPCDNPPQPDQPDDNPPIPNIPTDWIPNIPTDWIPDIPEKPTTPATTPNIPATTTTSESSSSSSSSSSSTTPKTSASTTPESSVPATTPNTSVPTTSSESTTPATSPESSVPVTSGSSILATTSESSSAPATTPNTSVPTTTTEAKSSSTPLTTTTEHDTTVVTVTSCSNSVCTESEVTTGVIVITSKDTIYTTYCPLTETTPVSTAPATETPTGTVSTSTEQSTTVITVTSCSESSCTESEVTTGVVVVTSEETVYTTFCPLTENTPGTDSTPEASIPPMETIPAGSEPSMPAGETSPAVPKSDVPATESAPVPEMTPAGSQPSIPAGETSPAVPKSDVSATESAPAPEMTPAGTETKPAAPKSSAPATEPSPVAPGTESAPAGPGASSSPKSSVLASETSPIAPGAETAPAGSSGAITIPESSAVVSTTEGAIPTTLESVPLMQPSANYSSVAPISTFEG

[3] = target: T3, agglutinin-like sequence protein 3 (full-length Als3) on S. cerevisiae cells (C. albicans, UniProt Q59L12 18-1134); assay: as above; conditions: one partner purified
T3 construct: source: S. cerevisiae, overexpressed and surface-presented, on cells
T3 sequence: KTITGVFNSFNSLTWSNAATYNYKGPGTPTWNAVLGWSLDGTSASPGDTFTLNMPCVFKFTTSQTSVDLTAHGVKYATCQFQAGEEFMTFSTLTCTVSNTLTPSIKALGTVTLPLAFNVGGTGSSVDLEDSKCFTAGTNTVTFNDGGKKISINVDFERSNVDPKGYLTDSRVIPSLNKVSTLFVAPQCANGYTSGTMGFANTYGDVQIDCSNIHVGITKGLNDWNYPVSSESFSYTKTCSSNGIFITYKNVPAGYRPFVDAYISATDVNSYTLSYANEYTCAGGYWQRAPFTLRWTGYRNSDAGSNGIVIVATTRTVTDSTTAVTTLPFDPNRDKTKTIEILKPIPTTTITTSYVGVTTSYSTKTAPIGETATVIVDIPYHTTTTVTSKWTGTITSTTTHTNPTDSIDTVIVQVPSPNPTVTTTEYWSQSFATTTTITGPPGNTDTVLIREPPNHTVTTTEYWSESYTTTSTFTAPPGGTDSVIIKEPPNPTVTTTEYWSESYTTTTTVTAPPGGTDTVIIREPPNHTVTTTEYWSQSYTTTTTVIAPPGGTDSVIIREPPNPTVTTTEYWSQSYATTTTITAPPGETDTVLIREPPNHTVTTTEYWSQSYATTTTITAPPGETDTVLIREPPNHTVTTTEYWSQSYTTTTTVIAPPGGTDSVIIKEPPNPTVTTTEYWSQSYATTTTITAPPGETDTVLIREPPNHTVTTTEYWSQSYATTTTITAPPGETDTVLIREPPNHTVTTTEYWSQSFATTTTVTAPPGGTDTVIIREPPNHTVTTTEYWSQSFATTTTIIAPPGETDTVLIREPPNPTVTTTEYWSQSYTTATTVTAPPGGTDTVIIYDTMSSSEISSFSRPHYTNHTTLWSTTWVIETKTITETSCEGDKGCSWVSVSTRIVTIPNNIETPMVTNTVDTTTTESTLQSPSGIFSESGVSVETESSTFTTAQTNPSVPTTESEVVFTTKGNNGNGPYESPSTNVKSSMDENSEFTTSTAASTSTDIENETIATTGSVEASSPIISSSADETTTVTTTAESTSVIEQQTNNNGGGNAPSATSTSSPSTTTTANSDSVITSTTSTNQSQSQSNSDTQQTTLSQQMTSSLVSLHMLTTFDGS

[4] = target: the molecule itself; assay: SEC; Superdex 200 HR 10/50, calibrated with molecular mass standards, 0.5 mL/min; buffer 20 mM Tris-HCl pH 6.7 (methods) or 50 mM NaH2PO4, 150 mM NaCl pH 7.0

B1: recombinant Candida albicans glyceraldehyde 3-phosphate dehydrogenase (enzyme, C. albicans, UniProt Q5ADM7 1-335, looked up)
chain: MAIKIGINGFGRIGRLVLRVALGRKDIEVVAVNDPFIAPDYAAYMFKYDSTHGRYKGEVTASGDDLVIDGHKIKVFQERDPANIPWGKSGVDYVIESTGVFTKLEGAQKHIDAGAKKVIITAPSADAPMFVVGVNEDKYTPDLKIISNASCTTNCLAPLAKVVNDTFGIEEGLMTTVHSITATQKTVDGPSHKDWRGGRTASGNIIPSSTGAAKAVGKVIPELNGKLTGMSLRVPTTDVSVVDLTVRLKKAASYEEIAQAIKKASEGPLKGVLGYTEDAVVSTDFLGSSYSSIFDEKAGILLSPTFVKLISWYDNEYGYSTRVVDLLEHVAKASA
modifications: biotin (NHS-biotin) in the microplate and yeast-cell binding assays; Alexa Fluor 647 in flow cytometry
notes: no tag (pLATE11); By gel filtration predominantly a tetramer, with marked proportions of dimers and monomers; The forward primer carries ATGATG (the vector adapter's ATG and the gene's own), so an extra N-terminal Met may be present; also called CaGAPDH; GAPDH; source: E. coli Rosetta 2 (DE3), pLATE11, purified (ammonium sulfate fractionation, ResourceQ)
- Kd [1]: 1250 nM
- Kd [2]: 715 nM
- Kd [3]: 95.9 nM
- stoichiometry N [4]: 4 and 2
